Results on 20 molecules are retold here after patent US20130323786A1.

Experiment [1] concerns the target LINGO-1 (human) (UniProt Q96FE5). Description: FACS binding to LINGO-1; the value is listed under the plot without a name and agrees with the half-maximal point of the curve (x axis: Ab (ng/ml) log). (In general: Flow cytometry measures light scatter and fluorescence of single cells or particles in a stream.)
The target is the same in experiment [2]. Description: ELISA. A general note: An ELISA detects its analyte on a solid surface through an enzyme-linked reagent.
For experiment [3] the target is unchanged. Description: affinity vs parent Li62 Fab; method not stated.
The target is the same in experiment [4]. As to the kind of experiment: LINGO-1 ELISA.

Where a chain is given by its changes, count along the chain named.

B1: N-terminally PEGylated Li113 (Fab, V domains shown)
VH: EVQLLESGGGLVQPGGSLRLSCAASGFTFSIYPMFWVRQAPGKGLEWVSWIGPSGGITKYADSVKGRFTISRDNSKNTLYLQMNSLRAEDTATYYCAREGTYDWYLDLWGRGTLVTVSS
VL: DIQMTQSPSFLSASVGDSVAITCRASQDISRYLAWYQQRPGKAPKLLIYDASNLQTGVPSRFSGSGSGTDFTFTITSLQPEDFGTYYCQQYDTLHPSFGPGTTVDIK
modifications: N-terminal 20 kDa methoxy-polyethyleneglycol propionaldehyde; chain carrying it not stated
Take B1: the concentration giving a half-maximal response (EC50) (commonly the midpoint of the concentration-response curve) with LINGO-1 (human) [1] was found to be 0.182 µg/mL.

B2: Li62 variant F02 Fab (VH CDR3 SEQ ID NO:24) (Fab, V domains shown)
VH: B1 VH with T101D, L106F, D107G
VL: B1 VL
In turn, B2 had an ELISA Signal with LINGO-1 (human) [2] of 3. For the same molecule, in the experiment with LINGO-1 (human) [3], the Fold-Improvement turned out to be 8 fold.

B3: Li62 variant H08 Fab (VH CDR3 SEQ ID NO:34) (Fab, V domains shown)
VH: B1 VH with L106F
VL: B1 VL
In turn, B3 yielded an ELISA Signal with LINGO-1 (human) [2] of 3. Further, in the experiment with LINGO-1 (human) [3], the Fold-Improvement was 9 fold.

B4: Li62 variant C10 Fab (VH CDR3 SEQ ID NO:29) (Fab, V domains shown)
VH: B1 VH with T101Y, L106F
VL: B1 VL
With B4, the ELISA Signal in the experiment with LINGO-1 (human) [2] came out at 3. In addition, in the experiment with LINGO-1 (human) [3], the Fold-Improvement came to 11 fold.

B5: Li62 variant D12 Fab (VH CDR3 SEQ ID NO:22) (Fab, V domains shown)
VH: B1 VH with T101H, L106F
VL: B1 VL
In the experiment with LINGO-1 (human) [2], B5 yielded an ELISA Signal of 3. The Fold-Improvement in the experiment with LINGO-1 (human) [3] is 8 fold.

B6: Li62 variant B12 Fab (VH CDR3 SEQ ID NO:18) (Fab, V domains shown)
VH: B1 VH with T101Q, L106F, L108V
VL: B1 VL
In the experiment with LINGO-1 (human) [2], B6 returned an ELISA Signal of 3. Besides, the Fold-Improvement in the experiment with LINGO-1 (human) [3] came to 8 fold.

B7: Li62 variant D09 Fab (VH CDR3 SEQ ID NO:21) (Fab, V domains shown)
VH: B1 VH with G100A, T101D, Y102I, Y105F, L106F
VL: B1 VL
B7: the ELISA Signal in the experiment with LINGO-1 (human) [2] amounted to 3. The Fold-Improvement in the experiment with LINGO-1 (human) [3] was determined as 15 fold.

B8: Li62 variant C10 Fab (VH CDR3 SEQ ID NO:33) (Fab, V domains shown)
VH: B1 VH with T101Q, Y102F, L106F
VL: B1 VL
B8 registered an ELISA Signal with LINGO-1 (human) [2] of 3. For the same molecule, in the experiment with LINGO-1 (human) [3], the Fold-Improvement stood at 9 fold.

B9: Li62 variant F01 Fab (VH CDR3 SEQ ID NO:23) (Fab, V domains shown)
VH: B1 VH with T101R, L106F, L108P
VL: B1 VL
In the case of B9, the ELISA Signal with LINGO-1 (human) [2] was determined as 3. Besides, the Fold-Improvement with LINGO-1 (human) [3] was 9 fold.

B10: Li62 variant B01 Fab (VH CDR3 SEQ ID NO:20) (Fab, V domains shown)
VH: B1 VH with T101Q, L106F, D107E
VL: B1 VL
On to B10, for which the ELISA Signal with LINGO-1 (human) [2] was 3. Also, in the experiment with LINGO-1 (human) [3], the Fold-Improvement came out at 8 fold.

B11: Li62 variant F10 Fab (VH CDR3 SEQ ID NO:26) (Fab, V domains shown)
VH: B1 VH with G100S, T101H, Y102I, W104R, L106F
VL: B1 VL
With B11, the ELISA Signal with LINGO-1 (human) [2] was found to be 3. In addition, in the experiment with LINGO-1 (human) [3], the Fold-Improvement turned out to be 5 fold.

B12: Li62 variant D05 Fab (VH CDR3 SEQ ID NO:31) (Fab, V domains shown)
VH: B1 VH with T101Y, L106F, D107E
VL: B1 VL
Take B12: the ELISA Signal with LINGO-1 (human) [2] was determined as 3. The Fold-Improvement in the experiment with LINGO-1 (human) [3] was 10 fold.

B13: Li62 variant F06 Fab (VH CDR3 SEQ ID NO:25) (Fab, V domains shown)
VH: B1 VH with T101R, L106F
VL: B1 VL
For B13, the ELISA Signal with LINGO-1 (human) [2] came out at 3. The Fold-Improvement with LINGO-1 (human) [3] was found to be 8 fold.

B14: Li62 variant G08 Fab (VH CDR3 SEQ ID NO:27) (Fab, V domains shown)
VH: B1 VH with T101Q, L106F, L108V
VL: B1 VL
In turn, B14 yielded an ELISA Signal with LINGO-1 (human) [2] of 3. In addition, the Fold-Improvement with LINGO-1 (human) [3] was determined as 10 fold.

B15: Li62 Fab (Fab, V domains shown)
VH: B1 VH with T101H, Y102N, L106F
VL: B1 VL
Regarding B15, in the experiment with LINGO-1 (human) [4], the EC50 turned out to be 260 pM.

B16: Li62 variant F02 Fab (VH CDR3 SEQ ID NO:32) (Fab, V domains shown)
VH: B1 VH with T101L, Y102I, Y105F, L106F, L108Q
VL: B1 VL
Take B16: the ELISA Signal with LINGO-1 (human) [2] turned out to be 3. Moreover, in the experiment with LINGO-1 (human) [3], the Fold-Improvement came out at 16 fold.

B17: Li62 variant F06 Fab (VH CDR3 SEQ ID NO:19) (Fab, V domains shown)
VH: B1 VH with T101D, L106F
VL: B1 VL
As for B17, the ELISA Signal in the experiment with LINGO-1 (human) [2] is 3. Further, the Fold-Improvement with LINGO-1 (human) [3] was 12 fold.

B18: Li62 variant H08 Fab (VH CDR3 SEQ ID NO:28) (Fab, V domains shown)
VH: B1 VH with T101H, D103N, W104G, L106F
VL: B1 VL
On to B18, for which the ELISA Signal with LINGO-1 (human) [2] was determined as 0.5. Moreover, the Fold-Improvement with LINGO-1 (human) [3] worked out at 6 fold.

B19: Li113 Fab (Li62 variant C02, VH CDR3 SEQ ID NO:30) (Fab, V domains shown)
VH: B1 VH
VL: B1 VL
B19: the ELISA Signal with LINGO-1 (human) [2] came to 3. The EC50 with LINGO-1 (human) [4] stood at 90 pM. Further, the Fold-Improvement in the experiment with LINGO-1 (human) [3] turned out to be 8 fold.

B20: Li62 variant B06 Fab (VH CDR3 SEQ ID NO:17) (Fab, V domains shown)
VH: B1 VH with T101Y, L106F, L108Q
VL: B1 VL
B20 came in with an ELISA Signal with LINGO-1 (human) [2] of 3. For the same molecule, the Fold-Improvement with LINGO-1 (human) [3] amounted to 8 fold.
